Reference: article PMC4448125 (Nature communications, 2015)

Target: GST-tagged human eIF1AX (known as eIF1A), full length (human, UniProt P47813 1-144)
Assay: pull-down

GST-tagged human eIF1AX (known as eIF1A), full length, sequence (P47813 whole entry): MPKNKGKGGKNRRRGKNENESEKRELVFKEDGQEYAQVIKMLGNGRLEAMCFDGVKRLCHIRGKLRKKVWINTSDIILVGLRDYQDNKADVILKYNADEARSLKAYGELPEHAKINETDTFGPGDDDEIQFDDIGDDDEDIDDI

B1: His-SMT3-tagged MID(432 ~ 575aa) of human Ago2 (domain or fragment)
chain: not shown
- binding result: binds
